Numbering of substitutions follows the chain as printed.
Biological target: T1, hSOD1-A4V-myc (Homo sapiens, UniProt P00441, point mutant)
T1 construct: human SOD1 with the ALS mutation A4V; source: HEK-293T/17, transiently transfected (pcDNA), in lysate; not shown: myc, C-terminal, kept
Assay: co-IP; soluble lysate of transfected HEK-293T/17 cells (PBS + 0.1% Triton X-100) immunoprecipitated with 2 µg HuMab and protein A sepharose; immunoblot with anti-myc 9E10
Details: one partner purified

B1: HuMab 37_(L-63) (cloned, IgG1) (antibody, V domains shown)
VH: EVQLVQSGGGLVHPGGSLRLSCAGSGFTFSRYALHWVRQAPGKGLEWVSAIGIGGGTFYADSVKGRFTISRDNAKNSLYLQMNSLRAEDMAVYYCARDTYYDFFDAFDIWGQGTMVTVSS
VL: DIQMTQSPSSLSASVGDRVTITCRASQGISSWLAWYQQKPEKAPKSLIYAASSLQSGVPSRFSGSGSGTDFTLTISSLQPEDFATYYCQQYDSYPLTFGGGTKVEIK
- binding result: binds

B2: HuMab 33_(L-112) (antibody, V domains shown)
VH: EVQLVESGGGLVQPGGSLRLSCAASGFTFSRYWMSWVRQAPGKGLEWMANIKQDGSETHYVDSVKGRFTISRDNAKNSLYLQMNSLRAEDTAVYYCAIGDYWGQGTLVTVSS
VL: B1 VL with G28D, D92K
- binding result: binds

B3: HuMab 22c (antibody, V domains shown)
VH: QVQLVESGGGVVQPGRSLRLSCAASGFTFRSYGMHWVRQAPGKGLEWVTLIWYDGSNKYYADSVKGRFTISRDNSKNTLYLQMNSLRVEDTAVYYCAREGFNWDAFDIWGQGTMVTVSS
VL: EIVLTQSPGTLSLSPGERATLSCRASQSVRISYLAWYQQKPGQAPRLLIYGTFSRATGIPDRFSGSGSGTDFTLTISRLEPEDFAVYYCQQYGSSMYTFGQGTKLEIK
- binding result: binds

B4: HuMab 155c (antibody, V domains shown)
VH: EVQLVQSGAEVKKPGESLKISCKGSGYSFTSYWIGWVRQMPGKGLEWMGIIYPGDSDTRYSPSFQGQVTISADKSISTAYLQWSSLKASDTAMYYCARQGSGWYGNYFDYWGQGTLVTVSS
VL: B3 VL with V29F, R30S, I31R, S32G, T52A, F53S, A56V, G93D, M96P
- binding result: binds

B5: HuMab 56c (antibody, V domains shown)
VH: QVQVVQSGAEVKKPGSSVKVSCKASGGTFSSYAISWVRQAPGQGLEWMGRIIPILGTAKYAQKFQGRVTIIADKSTSTAYMELSSLRSEDTAVYYCARDQDYYGMDVWGQGTTVTVSS
VL: B1 VL with L11V, Q38H, E41G, S46L, Y91T, D92N, S93N, Y94F, L96W, G100Q
- binding result: binds

B6: HuMab 11_(L-80) (antibody, V domains shown)
VH: QVQLVESGGGVVQPGRSLRLSCAASGFTFSNYGIHWVRQAPGKGLEWVAIIWHDGSNSYYVDSVKGRFTMSRDNSKNTVYLQMNSLRAEDTAVYFCARIIGGAFDIWGQGTMVTVSS
VL: B1 VL with D92N, L96I, G100Q, K103R, V104L
- binding result: binds

B7: HuMab 16_(L-40) (antibody, V domains shown)
VH: EVQLVQSGGGLGHPGGSLRLSCAGSGFTFSSYSMHWLRQAPGKGLKWVSAIGTAGGTYYADSVKGRFTISRDNAKNSFYLQMNSLRAEDMAVYYCAREYFFGSGNYGYWGQGTLVTASS
VL: not shown
- binding result: binds

— paper PMC3629177 (PLoS ONE, 2013)
